Test [1] addresses LILRA5 recombinant, full-length ectodomain (LILRA5 42-268) (human, UniProt A6NI73 42-268). Put plainly: summary table (single point ELISA); N = No. (An ELISA detects its analyte on a solid surface through an enzyme-linked reagent.)
In test [2] the target is LILRB4 recombinant, full-length ectodomain (LILRB4 17-257) (human, UniProt Q8NHJ6 22-257). As to the kind of experiment: summary table (single point ELISA); N = No.
In test [3] the target is LILRB5 recombinant, full-length ectodomain (LILRB5 18-456) (human, UniProt O75023 24-456). Put plainly: summary table (single point ELISA); N = No.
Chain of LILRB5 recombinant, full-length ectodomain (LILRB5 18-456) (O75023 24-456 limits assumed): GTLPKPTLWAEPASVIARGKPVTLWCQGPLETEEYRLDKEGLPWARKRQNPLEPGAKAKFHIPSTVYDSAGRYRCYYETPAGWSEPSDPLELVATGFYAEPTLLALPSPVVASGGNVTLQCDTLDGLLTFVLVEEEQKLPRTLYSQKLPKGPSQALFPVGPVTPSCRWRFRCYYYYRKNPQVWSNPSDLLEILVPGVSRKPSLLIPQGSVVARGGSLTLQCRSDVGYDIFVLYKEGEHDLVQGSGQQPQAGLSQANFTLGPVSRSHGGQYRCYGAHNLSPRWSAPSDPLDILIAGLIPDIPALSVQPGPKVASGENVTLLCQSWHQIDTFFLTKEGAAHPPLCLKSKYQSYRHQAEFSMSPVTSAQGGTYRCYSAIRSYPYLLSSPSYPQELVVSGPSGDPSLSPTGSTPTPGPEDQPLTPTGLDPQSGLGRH
The target of a further test is T1, Human LILRA2 ectodomain (human, UniProt Q8N149 24-449).
T1 construct: Recombinant protein from a commercial source
T1 sequence (Q8N149 24-449 S135L): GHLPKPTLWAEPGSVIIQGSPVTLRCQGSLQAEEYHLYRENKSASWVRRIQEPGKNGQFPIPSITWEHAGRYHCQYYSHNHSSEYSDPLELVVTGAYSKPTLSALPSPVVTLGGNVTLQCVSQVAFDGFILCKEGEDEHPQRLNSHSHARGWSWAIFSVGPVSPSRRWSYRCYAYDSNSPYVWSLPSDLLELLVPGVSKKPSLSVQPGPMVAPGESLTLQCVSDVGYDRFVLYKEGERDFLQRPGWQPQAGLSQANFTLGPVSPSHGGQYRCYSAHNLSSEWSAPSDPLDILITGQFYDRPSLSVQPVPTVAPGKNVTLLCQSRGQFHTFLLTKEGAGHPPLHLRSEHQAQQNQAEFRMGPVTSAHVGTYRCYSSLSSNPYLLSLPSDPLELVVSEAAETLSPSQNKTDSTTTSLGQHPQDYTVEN
As to the kind of experiment: summary table (single point ELISA); N = No.

Test [4] deals with T2, Human LILRB1(I142T/S155I) ectodomain fused to mIgG2aFc (human).
T2 construct: The entry already carries the two substitutions
T2 sequence (chain, as listed by the source I142T S155I I142T S155I limits assumed): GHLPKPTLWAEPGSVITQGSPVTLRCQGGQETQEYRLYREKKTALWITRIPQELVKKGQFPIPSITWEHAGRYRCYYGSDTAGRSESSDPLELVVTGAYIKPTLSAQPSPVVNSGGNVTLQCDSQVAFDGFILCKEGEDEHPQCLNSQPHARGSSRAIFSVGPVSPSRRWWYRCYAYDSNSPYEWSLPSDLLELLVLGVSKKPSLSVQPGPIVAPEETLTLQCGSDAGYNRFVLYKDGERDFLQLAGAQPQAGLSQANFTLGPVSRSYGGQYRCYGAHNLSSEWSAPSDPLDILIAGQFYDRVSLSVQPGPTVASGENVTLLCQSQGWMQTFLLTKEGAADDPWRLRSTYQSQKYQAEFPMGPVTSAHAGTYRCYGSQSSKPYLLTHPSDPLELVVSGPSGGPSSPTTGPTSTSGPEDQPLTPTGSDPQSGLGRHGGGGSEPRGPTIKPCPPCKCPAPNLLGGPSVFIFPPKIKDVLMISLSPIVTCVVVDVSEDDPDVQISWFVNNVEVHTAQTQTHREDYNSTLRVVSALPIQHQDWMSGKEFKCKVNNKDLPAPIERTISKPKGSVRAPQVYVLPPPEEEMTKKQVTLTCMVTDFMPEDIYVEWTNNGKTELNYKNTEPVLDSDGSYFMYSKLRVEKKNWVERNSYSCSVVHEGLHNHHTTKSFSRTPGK
As to the kind of experiment: ELISA, antigen coated, 10 nM antibody. The text has this:
(§1) FIG. 3. Mixed LILRB1 and LILRB2 expression in TAMs from melanoma cancer patients. Analysis of LILRB1 and LILRB2 detection in macrophages in pre- and post-anti-PD-1 and/or anti-CTLA-4 therapy treated melanoma patients (n=33) is shown using Smart-seq2 data from Sade-Feldman et al. https://pubmed.ncbi.nlm.nih.gov/30633907/FIG. 4. Binding to domains of human LILRB1. Plates were coated with recombinant full length LILRB1 ectodomain (SEQ ID NO: 41) or a protein comprising domain 1 and 2 of human LILRB1 protein (SEQ ID NO: 42), and then incubated with 10 nM Clones 1-5, Reference Ab 1, and Isotype control. The bound antibodies were detected using HRP-labeled secondary antibodies and the results were plotted on the graph as absorbance measured at 450 nm.
(§2) Binding to allelic forms of LILRB1. There are 4 major allelic variants of human LILRB1 protein ectodomain. The variants of LILRB1 were expressed as recombinant proteins comprising a modified LILRB1 ectodomain and mouse IgG2 Fc region (SEQ ID NO: 50 and 51) in suspension CHO cells, and purified by using techniques that were known in the art. These recombinant proteins were then used in the direct enzyme-linked immunosorbent assay (ELISA) to determine the antibodies potential to bind different allelic forms of LILRB1. In short, Maxisorp (Nunc) or similar immune-assay plates were coated with solutions of target proteins in PBS, at 4° C., overnight. Plates were then washed with PBS, blocked with 5% milk in PBS, and washed again. Test antibodies diluted in PBS were then added to the plates and incubated at room temperature for at least 1h. Plates were subsequently washed with PBS/0.05% Tween-20 (PBST) and incubated with a solution of horse radish peroxidase (HRP) labelled secondary antibodies at room temperature for at least 1 h. After washing with PBST and PBS, bound antibodies were detected using the 3,3′,5,5;-tetramethylbenzidine (TMB) chromogenic solution. After 5 to 10 minutes, the reaction was stopped with 1% sulphuric acid and absorbance read at 450 nm.
(§3) There are four major allelic variants within the ecto-domain of LILRB1 in human population [Human Molecular Genetics, 2005, Vol. 14, 2469-2480]; namely c.203T>C (L68P), c.277G>A (A93T), c.425T>C (I142T), and c.464G>T (S155I).

Test [5] has as its target T3, Human LILRB1(L68P/A93T) ectodomain fused to mIgG2aFc (human).
T3 construct: The entry already carries the two substitutions
As to the kind of experiment: ELISA, antigen coated, 10 nM antibody.
From the text: as §1, §2, §3

Chain of LILRA5 recombinant, full-length ectodomain (LILRA5 42-268) (A6NI73 42-268): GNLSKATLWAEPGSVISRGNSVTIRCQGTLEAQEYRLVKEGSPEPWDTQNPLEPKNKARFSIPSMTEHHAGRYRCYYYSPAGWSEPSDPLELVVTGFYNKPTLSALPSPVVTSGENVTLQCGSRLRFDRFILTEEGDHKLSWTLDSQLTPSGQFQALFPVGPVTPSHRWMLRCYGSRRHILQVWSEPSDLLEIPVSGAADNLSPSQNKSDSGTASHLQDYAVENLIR
T3 sequence (chain, as listed by the source L68P A93T L68P A93T limits assumed): as the sequence (chain, as listed by the source I142T S155I I142T S155I limits assumed) above, with L45P, A70T, T119I, I132S counted along it

B1: Antibody 5 (antibody, V domains shown)
VH: QVQLVESGGGLVKPGGSLRLSCAASGFTFSDYYMTWIRQAPGKGLEWVSYISISGITRYYADSVKGRFTISRDNAKNSLYLQMNSLRAEDTAVYYCARDQTGYFDYWGQGTLVTVSS
VL: DIVMTQSPATLSVSPGEKTTLSCRASQSFSSNLAWYQQKPGQAPRLLIYGASTRATGIPARFSGSGSGTEFTLTISSLQSEDFAVYYCQQYINWPHTFGQGTKVEIK
notes: Fully human antibody; IgG4; also called Clone 5; Antibody Clone 5
In the case of B1, the binding result is “no binding (tested: 1 nM)” in test [1]; “no binding (tested: 1 nM)” in test [2]; “no binding (tested: 1 nM)” in test [3]; “no binding (tested: 1 nM)” with Human LILRA2 ectodomain; “binds” in test [4]; “binds” in test [5].

B2: Antibody 1 (antibody, V domains shown)
VH: QVQLVESGGGLVKPGGSLRLSCAASGFTFSDYYMSWIRQAPGKGLEWVSYISSSGSIKKYADSVKGRFTISRDNAKNSLYLQMNSLRGEDTAVYYCARTNWHFDYWGQGTLVTVSS
VL: EIVLTQSPGTLSLSPGERATLSCRASQSVSSSYLAWYQQKPGQAPRLLIFGASTRATGIPDRFSGSGSGTDFTLTISRLEPEDVAVYYCQQYYSTPFTFGPGTKVDIK
notes: Fully human antibody expressed in CHO; also called Clone 1; Antibody Clone 1
In the case of B2, the binding result in test [1] is reported as “no binding (tested: 1 nM)”; in test [2], “no binding (tested: 1 nM)”; in test [3], “no binding (tested: 1 nM)”; with Human LILRA2 ectodomain, “no binding (tested: 1 nM)”; in test [4], “binds”; in test [5], “binds”.

B3: Antibody 3 (antibody, V domains shown)
VH: QVQLVQSGAEVKKPGASVKVSCKASGYTFTSYGISWVRQAPGQGLEWMGWISAYNGNTNYAQKLQGRVTMTTDTSTSTAYMELRSLRSDDTAVYYCARSYSGSHWWFDPWGQGTLVTVSS
VL: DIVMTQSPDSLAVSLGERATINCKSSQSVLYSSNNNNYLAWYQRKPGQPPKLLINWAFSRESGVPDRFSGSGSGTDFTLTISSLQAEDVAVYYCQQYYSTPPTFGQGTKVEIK
notes: Fully human antibody; IgG4; also called Clone 3; Antibody Clone 3
With B3, the binding result is “no binding (tested: 1 nM)” in test [1]; “no binding (tested: 1 nM)” in test [2]; “no binding (tested: 1 nM)” in test [3]; “no binding (tested: 1 nM)” with Human LILRA2 ectodomain; “binds” in test [4]; “binds” in test [5].

B4: Antibody 4 (antibody, V domains shown)
VH: QVQLVQSGAEVKKPGASVKVSCKASGYTFTSYGISWVRQAPGQGLEWMGWISAYNGNTNYAQKLQGRVTMTTDTSTSTAYMELRSLRSDDTAVYYCARSYSGSYWWFDPWGQGTLVTVSS
VL: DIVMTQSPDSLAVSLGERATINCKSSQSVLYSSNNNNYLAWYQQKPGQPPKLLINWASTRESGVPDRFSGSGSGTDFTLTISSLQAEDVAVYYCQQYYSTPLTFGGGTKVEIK
notes: Fully human antibody; IgG4; also called Clone 4; Antibody Clone 4
On to B4, for which the binding result in test [1] was “no binding (tested: 1 nM)”; in test [2], “no binding (tested: 1 nM)”; in test [3] it was “no binding (tested: 1 nM)”; in the test with Human LILRA2 ectodomain it was “no binding (tested: 1 nM)”; in test [4], “binds”; in test [5] it was “binds”.

For the origin of these results see patent US20250197491A1 (MACOMICS, published 2025).
